The DeepSol protein solubility set

Assay: soluble on expression in E. coli; label from the status in PepcDB or PDB records

Soluble on expression in E. coli, not soluble:
MGSDKIHHHHHHMNIERADFVDRVKIFVKAGDGGNGCVSFRREKYVPKGGPDGGDGGNGGFVFLRANPSVSTLIEFVNKRKFMAENGKHGMGKKMKGRNGKDLFIDVPVGTVVKDAVTGEVIADLNEPGKIVCVARGGRGGRGNAHFATSIKQAPLIAERGEKGESRWLELELKILADVGLVGYPNVGKSSLISRISNARPKIANYPFTTLIPNLGVVKYDDFSFVVADIPGLIEGASEGVGLGNVFLRHVERCYLIAHVIDVSGYEREDPVRDYFVIREEMKKYSPFLLEKPEIVVANKIDLIGKEELEKILKRLRDATNREVIPVSAVTGEGIDLLVSKLASIVREMKVEKPERKEEKFVKPSPVWRRLPEKFHLEVVKEDEGYWVVEGENLRVWIERFDLNQRDARLMLLQVLEKNGLNNKLKEAGVKEGDVVRIGDFEFEYRE
MGSDKIHHHHHHMNIIGFSKALFSTWIYYSPERILFDAGEGVSTTLGSKVYAFKYVFLTHGHVDHIAGLWGVVNIRNNGMGDREKPLDVFYPEGNRAVEEYTEFIKRANPDLRFSFNVHPLKEGERVFLRNAGGFKRYVQPFRTKHVSSEVSFGYHIFEVRRKLKKEFQGLDSKEISRLVKEKGRDFVTEEYHKKVLTISGDSLALDPEEIRGTELLIHECTFLDARDRRYKNHAAIDEVMESVKAAGVKKVILYHISTRYIRQLKSVIKKYREEMPDVEILYMDPRKVFEM
MGSDKIHHHHHHMNKDLKAIKWFITTQILKDPFNPAYATFKVTSRCNLRCTFCSPSYYSGELGEGSTERVKKIIDNLRDSSIVVLSFEGGEPTYRPDILDLLEYAHDGSFYIMLTTNGYRLKDEDFLTKLADKIDFLHYSIDEYHWNVKELENLCRFRKYGLKVNVQTVVTRYNLYKLEEKVRKVAECGYKILAMPAVDYPNSKVKLAPDPYEFYKVLYDLKRKYGSTLNNSWGFINAIIGKVPKRVVSYAITIYPNGDLPYPDDINGEIVGNVAEEPLNKILQSSKVKELQQKMLENQAKFEYLHLQTASFNNIRDLASYVSEMLRWRFTGRA
MGSDKIHHHHHHMNKLNFKGSVMLNPTPVVLVTSKDKSQNLNVFTVGWVSTVCTKDPIIAMGIRPERLSYQYIKESCECVINLPTTSMVKIVDYCGVVSGRRVDKIKHFSLPLNDGVSISTPSLENCPVALECKVKSVTPLGTHDLFLLQVLNVKIDETLLDKNNKICFNKANLMCYNHGEYYGLNSKPIGSFGFSVKKKTKKIHRRKKGD
MGSDKIHHHHHHMNKRRNGLSSRSSTKGITTITIDPLMLVEMMHIHDSAFPIGGYTHSFGLETYIQRDIVKDENSLIQWCRTYLYDNLGYGDGILLKETLEVLKKSGSLAAIIEVDRLAHAQKLARESREGSLKMGRQFLQTVLPLQEDESLSQWAQLIRAKEAHGHYATTYGVFSYTRAYPDQMTMIAFLYSSVANLVHNAVRAIPLGQSTGVRVIHQLHEDCLYVAQQVVARSLNDLSNHAIGIELASMEHEHLHSRLFIS
MGSDKIHHHHHHMNLEDIFSILPEKIEREVKRISDYNNLQEIRIKVNKPLIIQIGKKEIISNYIATKEDLKKTFNVMSGYSIYSVEDELRQGYITIKGGHRVGICGDCVLEENKIKTIKNISSLNIRICKEVTGCSNSIMKKIVYGNTVLNTIIISPPNCGKTTLLRDITRNISYGINSIQFRGKKVCVIDERSEIGACLNGVNQMDIGIRTDILDNCPKSIGIMMAIRSMAPEVIICDEIGTYDDIKSILTAVNCGVKLITTIHGFGIEDLNSRDVFKDAIKNNVFERAIVLSGRSGVGTVEYIYDFYTKERERGL
MGSDKIHHHHHHMNLRNTAVFKFLVLTLGIISCQAYAEDTVIVNDHDISAIKDCWQKNSDDDTDVNVIKSCLRQEYNLVDAQLNKAYGEAYRYIEQVPRTGVKKPDTEQLNLLKKSQRAWLDFRDKECELILSNEDVQDLSDPYSESEWLSCMIIQTNTRTRQLQLYRNSEDFYPSPLTRG
MGSDKIHHHHHHMNLTELMERIPHLREILNIVREAFKDYDDPAHDISHTFRVMENASEIASREKCDLQKAIIAALLHDIKRPHEALTGVDHAESGAEYASGLLPTMGFDISFVAEVSKAIRSHRYSGGLTPTSLTGKILQDADRLDAIGAVAIARVFSYSGKTGTPLHSLQFSPRSSYSGNSRSSINHFHEKILKIRPETFWTETARKMAEDRYSFVVEFVQRFLAEWGQI
